Experiment: soluble fraction after stress (log2 fold change); higher = more stays soluble; pooled small domains, quantitative proteomics
Conditions: stress: 50 degC
Summary of the method: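 The measure of aggregation propensity here is the base-two logarithm of the fold change in the soluble amount of each protein after stress. A higher value means more of that protein stays in solution. Stress was applied at 50°C to pooled libraries of small protein domains, read out by high-throughput quantitative proteomics.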

| Sequence | soluble fraction (log2) |
| --- | --- |
| HMLTRYNVNYYYNGEILQRRKVAEGSAAERITYLSGSLEVTDWYTEADLLRKYDFTEPVTGDLNLYAFARI | -1.05 |
| HMLTSAQLAEIRQAVRAGQASVVEDLLKNGASPNFRMENGDTGFTYAVRADTPQVAEALLKSGKL | -0.0678 |
| HMLTTIRKATVNDKTRIMEIYAYARQFMAEHGNPNQWKNNNPSEETIDNDIAKQEMYVIETDGEVHAVFY | -1.44 |
| HMLVDWNYLEGKRGVTTTPLTPSGKARFGDDVVNVLSDGVLVSTGTPVRVLQVLGNRVLVEPLDG | 0.0957 |
| HMLVGRDPQALILGSMPSEKSLEEDEYYAHPRNRFWSLMNWLLAGNKTRPAYKTGIEILSSHGIALWV | -0.263 |
| HMLVIMKTGASEEEIGRVIERIEGEGLSAHVSRGTERTVIGVIGQGVDVHRIAGVLGGMSGVESLVPIS | 0.0405 |
| HMLVLAENMDVIFTRRTLDDHVVVDYKTTIGEMVKNDEIKGENMDELISAVEKDGYELVSSTSGEIIFLND | -1.2 |
| HMLVVEPSAELKTIIDKTASFVARNGPEFEARIKNEQNNAKFSFLQPNDPFNPYYRAKIVELGGTV | 0.0591 |
| HMLVYQRLDKDNFIFEGKTLLNDIYKILDIESNYFEAIRGEADSIAGLLLEIAKSIPTINTEF | -0.171 |
| HMLYEDVQVPNVRYWKSRDAKKQLEDLGLRVLTEHVNDAYIQSDQVIRTSPEIGDTLRTGDTVTLYVSDG | 0.185 |
| HMMKLSKRQEQIIAVVKEHQPVSGERISDILAVSRATLRSDLSFLTLSGILKASPKVGYTYES | -1.12 |
| HMMLVKKMLNGIMMKEITIKELADQYDVSTRTIQLKIKKLGYEWDSKESIYRYVGKESEPLDVDFSTLI | -3.29 |
| HMMQEIKLEVINNEELRIDNYINLAGIGLSRSYIQKLIKDGVILVNGKEVKSSYKVSLGDIISVQIPDPG | 0.299 |
| HMMVIMRANATEPQIANVVAYVEKNGLNAHLSRGAERTVIGVVGDIRRVSKETFELMDGVDSVMRIS | -0.356 |
| HMNADKEALIAAAYRNSLIENFGTENVERYEERFNKWADKHDRQGMPMYPTIEKWMNEDNIA | 0.111 |
| HMNADRIVGQTAKVIHPITPDEKGRVMVDNLDWAAAAQNRGESFEVGEEVSIVRIEGVTVYVQK | 0.209 |
| HMNADTVIGKAGTVIEKIDNVAATGAVKIDGKVWTARSERDNITIDEGTLVKAMAIEGVKLIVEPVT | 0.198 |
| HMNAEGLIGREAVALTAVDAHGGRVRLGGEEWSARLSKENGGVSRLSVGDPVRVTDIDGAIAVVAP | 0.187 |
| HMNAEQLAQVRRQKIGFIFQDFRLFPEYTVRDNILIPFYLDHRAPDEQMLHKLTGILGIAGKLHSRPAQL | -0.0698 |
| HMNAKVVAPIPGTVLSIDIKVGDVIKIGDRLLVLEAMKMENNIASEKSGTVTAVHVKVGQQVLQNELMIEL | -1.39 |
| HMNALNDLESKIFEEVVKAPEIIMNMTIREFASTVHASPTTIVRMTHKLGFSGWNELKTYLQKQKHQIS | -1.02 |
| HMNALREVNTSILNVRSGAGTNYSKIGSLTQATRVSVISESNGWSKINYNGKVGYVSSQYLS | -0.502 |
| HMNAMKPVLTVSLGVHTDSLSRRLNEEGIIYRWQQAASEQLLLVDSESSSERIAELIHDWRLEQSSS | -0.0169 |
| HMNANTILNSQRILTQLGFNPGPIDGAFGAKTKGALNAFYTSIGKSYDGLLDSNELVELQKALDVSGLKN | -0.295 |
| HMNDADAHASVDAALKHLEALAETTPEVRAALELVRRGPDGRVTVDSFARVAEALREISIAVGAS | 0.107 |

| Sequence | soluble fraction (log2) |
| --- | --- |
| HMNDELMEQIDEWHKAEKHQEIIDALEQIPEAERDFETTGFLARAYNNIEEYAKAADLLESVRE | 0.0873 |
| HMNDGEIAAPVSGTLQSFKVEDGQTVSEGDLVAVMEAMKMETQILATKGGTIRLLVKEGDYLQAGHALMTI | -0.525 |
| HMNDGTIRVGTNVTIKPSAKRWATGQNIYYGVKGKTYKVIQMNGNRLLLDKVISWINKGDVYVPGS | -0.501 |
| HMNDIDRFIEALIEQDTLPGTNSRINEDVISEMKMMTSVEDIKAYAIATVGLTGGQVNNALINSGL | -0.0823 |
| HMNDIVKIYTTHRIINIEGLAKNEPIMLYTINGTLIDKSVSSNGSAQLHVKGIGVYLVKWANNIVKVIVPN | -2.42 |
| HMNDLDSLWDIWENLNERGIGDKSEEGQELRDAIREFIDTNELNVRVTRNKTNEDLLTDIEDALEVAKNS | -0.33 |
| HMNDLIFSTLAEYDRDTITEIISVVDNTRGIGYEVELVRKDLIAMAAQAEARRDYLPSVIGDVEVFKRNLL | 0.0286 |
| HMNDNQNKQMLWELLKDNRAFDNFDNKDYKTIIHLFNETVNTIDHRTPNLDLIKKNKIFIQDIMQKLSNL | -1.13 |
| HMNDSGIIGVVINDHEKYEGHVLEDGFISSSLSALSREIDVAGYFMMVKTVVYEGFFQELKGIGNV | -0.00726 |
| HMNDTNEEAVLSIILKNPQATQGAIAKEVGASLSTVKRIMRNLQKSGKLRREGTNRNGSWVVTGQK | 0.0846 |
| HMNDTPPELRAALDLLGLKWPLASVELRARYKDLAKQHHPDATGGDKQAEERLKDINRAYSLLKHRLAKQ | -0.07 |
| HMNDTVGMNIRRLRKERGMTQGDLADKAGIQRETISKYESNKLTPPSYNLESIEKALKVPAGTLAQ | 0.0652 |
| HMNDYIGVDRAKEIALNHARMNESDVQFAKAKLENDDGVVEYEIEFYFGRTEYDYTIDAVSGNIIEYDVEY | -1.05 |
| HMNEDDQLLKVLLAEPLRLEELYNLDLKPQGPYNLQTWIMVHLTELERDGLIARFPDGRYGPAR | -1.36 |
| HMNEFAYLIKISPEHNNNRYYRMVAEGDNFRIEMGRIGASPVQMKRPMYLWNETYQKKLQEGYTDRTSYTS | -1.92 |
| HMNEIDLEAAKRIALQNAGVESADAAFTKAQLDYDDGVAEYEIEFVAGSTKYEYEISAANGTVLKSSKESV | -0.0497 |
| HMNEIEIHINKLFGKISDSKRKQELMQEITQNLNEKVSDLVSQGQTREQAVKKAIEDFGDIDDLKDELDN | 0.275 |
| HMNEIYHQIKVDNVSDDDISLFQYSGIEFDHADYRRGEYIEFAISNRDLSILNNLGYEYQVVHH | -0.757 |
| HMNEKAALIFNEWSDFVSKDDEANAQIKFDELITLYKKTGYTKIALLEVATKQASNGDIEGALAKYSLLID | 0.208 |
| HMNEKTGTLTVYSSPGWAKVYIDGEYKGITPVMANLTYGDHYVKLTLDGYDSIGNHIDVNSPDQSYTGKF | -0.494 |
| HMNELIGVEQLQDLREAIADHGFAEQRVLNWLYQATKGQVSRLEQLPLPMLTTLHKKLGQWADAEAAASSA | -0.0602 |
| HMNELVEATITTQTGRLDKVLTTIFPQYSRSQIQQLLEQGNILVNETLQKGKYKVKAGDKISLTEPAIKE | 0.111 |
| HMNEMSDTITRLLDAAETGIRLRGYHAVSFRDLAEELGIKSSSVHYYFRQKEDLGLAVVERY | 0.0289 |
| HMNENDPRVIKTRRLLLDSFVVLVRKKDFTSISVKDITDSAQVNRATFYAHFQDKYDILEYMVID | 0.112 |
| HMNENNFIVAMRERLAQFIETSGTSQSRIAKELGVSKSTVSLFLGGTYGGNNQELARNLEQLLSMGAARR | -0.96 |

| Sequence | soluble fraction (log2) |
| --- | --- |
| HMNEPMITEVKRINYGSIKEIAKNLDVFKGKNGTVIIDERTNTLILTDLSENIEKMLWSIEITD | -0.896 |
| HMNERTKIPLRKIEIGQAVYVDTLEKVGTVIDIQGKQFKVDLAGLPITVAARNLFYPLPQEAKP | -0.106 |
| HMNESADMPDVVNMSLEAAKSQLEGMGLKVKVENVEDDSVEENHVIKTSPVSGEKVKLGTTVTLTVSKGR | -0.0231 |
| HMNESEALIARIENLPPIEDLTEKHAEEVKALMTVYSKLKMSDRILVTNYGVLKKDFDALVKKGFLTNED | 0.0784 |
| HMNETHANKVYNFLKKKKKPLSAYEILKELASEGISAPTTIYRALNKLVSNGLIHKIESLNAWTV | 0.318 |
| HMNETLKQIRINALQYSEKDMATKLGLPLSEYKEIENDKPLNFTLLIRLSQAVGKTIDDLLNAQ | 0.0115 |
| HMNEVETWSVQADGATGRIDKWLAEQNEWSRSQVQEWLKAGRVEVDGRVVKPNYKLSGTESIAVHIPEAV | -0.0928 |
| HMNEWVSVEERLPTDERPVLAFIGYADTMNGFITTSYYFRFDPDPHWLGEGLIPVGLKTLFWMPLPAP | -0.0149 |
| HMNEYSLVPDIYGMTYDDALSSLRNVGLDGRLALASTNEDLANADTRVVWQSKEAGSIIDKGSNVMFVID | 0.0609 |
| HMNFAERIKELRKEKGITQIDLAEAVGLSKGTVAMWEVDKREANFDTLNKLSDYFQVSIDYLLGRSNDRS | 0.0272 |
| HMNFDVETGLPLDSRLVVSGLIQRDGINSLKRYEGMIVYVESEAKNYQLVGGISNTDWAELS | -0.916 |
| HMNFGEVLQTKRKSMGLTQEDLADKLFVSSETISNWETNKTTPDIDNVIRISQLFDISLNNLLL | -0.0758 |
| HMNFIPGEKINLKIVQEGKEKNQGVGYLSDGTMVIVENGSQKLGQDVEVVVIKNIQSSAGKIVFGDISK | 0.0978 |
| HMNFSRQREIIYEQVRNFPVHPTAEEVYRALKNDNPNLSLGTVYRNLNQLSEAGMLLKIPIADGSDRFDGR | -0.492 |
| HMNFTETENRIYEEILKNVKQHKKKTVVQIAEKVDVAPSYVIKVAKKLGYSGLNEMWYSLSGIY | -0.54 |
| HMNFTMERLYTKELTSEDIDEIKKELNSMGYTEGVEFNIIKGDKTSFIMAERQLKAKMLSHLSDLGLPRGA | -0.152 |
| HMNGAAAEQARKQLMTALKASEFIAQDKLDEWLDALALPQEKRSAIIDAVDELDYEEAISELEN | -0.0176 |
| HMNGDWISARQEYYIRGLWDLASRAKDEASLQAMLQRIAGVTQIEWISKEKATKVILALRDIAKK | -1.68 |
| HMNGELSQRQWQILRLIAQGLSNEQMARQLFVAPSTIKTHINHLYAKLGVRTRAEAQAIARQKLMA | -0.619 |
| HMNGIFEYSDAKKVPSLVEIENAYRRARVNGAEKFAVIINGEYFGYNPQKRGIYKLNDGEYQIL | -0.0706 |
| HMNGKPDMTPIPAGSRNNDLHAWAYGRLLNHPDNAEAIRRDLFERGQTSGLKESELETIWQSIRRQLGGD | 0.249 |
| HMNGKTIEVPDITEKSIAEAQLILNQKKLRYNVVDSTRFDPAYLPFSVLTQEPEAGDEVKKNRTIYITLNP | -0.0871 |
| HMNGLDSVLRNWARQTLASGGENLLGDLTDHVTRLIISEALIMTGGNRTRAAELLGLSRPTLLAKMDKLNL | -1.45 |
| HMNGPTPEEKLAVVNAEFVRQYGDEYEELELEGEELEEYYQKALNKEDFEYDIPHLPGWDEP | 0.0217 |
| HMNHHEIIMKNIDTLLKEKNISISKLEKSLGISNGYISRLRNGKYNFSLDLLLKLAKKFKISIDYLLTDFD | 0.00249 |

Source: the domain aggregation screens of Martell et al. (2025)
